Experimental data taken from patent US11406723B2, “Radiotherapeutic and companion imaging agents to target MC1R” (H. LEE MOFFITT CANCER CENTER AND RESEARCH INSTITUTE, INC., priority 2015, dated 2022).
Several values for one entry are separate records, joined by “and”; a condition that tells them apart may be missing. Equal values may be shown once. Where a SMILES comes first, the peptide text is derived from it. Side-chain parts run from the residue outwards. [ ]: non-standard residue; d: D form. The star is where a group is joined. 1‑Phenylbutyric acid = 1-phenylbutyric acid N-terminal cap; DOTA = O=C(O)CN1CCN(CC(=O)O)CCN(CC(=O)*)CCN(CC(=O)O)CC1; Butanoyl(4-Ph) = O=C(CCCc1ccccc1)*; Ahx = NCCCCCC(=O)O

How the values were obtained:
[1] = system: A375/MC1R tumors; assay: Efficacy in SCID mice bearing A375/MC1R tumors; format: in vivo; conditions: after injection; control groups
Protocol: Mice were observed daily for health and twice per week weighed and tumor volumes measured by caliper. When the tumors reach 2000 mm^3 (experimental endpoint), animals were euthanized. Euthanizations prior to 2000 mm^3 were due to clinical endpoints, i.e. predominantly due to tumor ulceration.
1.9-3.3 μCi of MC1RL-DOTA-^225Ac, 1.8-2.7 μCi of scrambled peptide-DOTA-^225Ac, an excess of the cold agent (MC1RL-DOTA-^139La) and saline were injected to the SCID mice bearing A375/MC1R tumors injection (n=10 per group, volume of the tumors: 57-266 mm3). Mice were observed daily for health and twice per week weighed and tumor volumes measured by caliper. When the tumors reach 2000 mm^3 (experimental endpoint), animals were euthanized. Euthanizations prior to 2000 mm^3 were due to clinical endpoints, i.e. predominantly due to tumor ulceration.
These 2 mice are currently tumor free 150 days post injection. The other 7 treated mice were euthanized at an average of 86 days due to tumor ulceration without progression. While the median time-to-endpoint (tumor >2000 mm^3) of control mice treated with saline, MC1RL-DOTA-^139La (cold surrogate) and scrambled peptide-DOTA-^225Ac were 22, 24 and 32 days respectively after injection.

[2] = target: T1, MC1R (Hek293/MC1R cells) (Homo sapiens, UniProt Q01726); assay: Saturation TRF binding assay with europium-chelated compounds; conditions: Eu chelate; 20x MC1RL-DOTA used for blocking; two repeats; read-out: Kd, specific saturation binding
T1 construct: expressed in transfected cells; host or cells: Hek293
T1 sequence (Q01726 whole entry): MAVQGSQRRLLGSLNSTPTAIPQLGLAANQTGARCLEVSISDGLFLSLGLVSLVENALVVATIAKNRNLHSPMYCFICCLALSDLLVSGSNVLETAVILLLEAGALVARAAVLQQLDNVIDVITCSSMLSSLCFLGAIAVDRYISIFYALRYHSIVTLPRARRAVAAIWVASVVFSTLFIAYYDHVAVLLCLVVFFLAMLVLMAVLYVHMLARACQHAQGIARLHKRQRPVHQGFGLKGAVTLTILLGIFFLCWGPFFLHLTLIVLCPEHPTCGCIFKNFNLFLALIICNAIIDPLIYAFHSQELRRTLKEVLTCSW
Text: The binding sequence is 1-Phenylbutyric acid-His(D)Phe-Arg-Trp-Gly-Lys(Ahx-DOTA)-CONH2. Eu is chelated into the conjugated DOTA for lanthanide-based binding assays but ^225Ac, ^68Ga, or ^111In can also be chelated. […] 20×MC1Rl-DOTA was used for blocking. […] Data is the result of two repeats.
The binding sequence is 1-Phenylbutyric acid-His(D)Phe-Arg-Trp-Gly-Lys(DOTA)-CONH2. Eu is chelated into the conjugated DOTA for lanthanide-based binding assays but ^225AC, ^68Ga, or ^111In can also be chelated. […] 20×MC1Rl-DOTA was used for blocking. […] Data is the result of two repeats.
The binding sequence is 1-Phenylbutyric acid-His(D)Phe-Arg-Trp-Gly-Lys(D-di-Glu-DOTA)-CONH2. Eu is chelated into the conjugated DOTA for lanthanide-based binding assays but ^225Ac, ^68Ga, or ^111In can also be chelated. […] 20×MC1Rl-DOTA was used for blocking. […] Data is the result of two repeats.
Time-resolved fluorescence (TRF) competition binding assays were performed to determine binding affinities of these DOTA conjugates (FIG. 2). The TRF method takes advantage of the long fluorescence lifetime of the lanthanide Europium and can detect less than one attomole in a multiwell plate sample. Hek293/MC1R cells (Hek293 cells engineered to over-express MC1R) were used for the binding assays. […]

[3] = target: T1, MC1R (Hek293/MC1R cells); assay: Time-resolved fluorescence (TRF) competition binding assay; conditions: competitive binding, read-out: binding affinity to MC1R (Ki)
Protocol: FIG. 2 is a graph from representative competitive binding assays of the ^139La- and ^69Ga-DOTA-MC1RL peptides.
Time-resolved fluorescence (TRF) competition binding assays were performed to determine binding affinities of these DOTA conjugates (FIG. 2). The TRF method takes advantage of the long fluorescence lifetime of the lanthanide Europium and can detect less than one attomole in a multiwell plate sample. Hek293/MC1R cells (Hek293 cells engineered to over-express MC1R) were used for the binding assays. Saturation TRF binding assays were performed using versions of the compounds with chelated europium to determine specific and non-specific binding (FIG. 17-20).

[4] = MTD study of the radiotherapeutic agent; format: in vivo, mice
Text: FIGS. 6A, 6B and 6C are graphs from a MTD study of ^225Ac-DOTA-MC1RL radio-therapeutic agent.
(Table 3). […] Blood urea nitrogen (BUN) (FIG. 6B) and blood creatinine (FIG. 6C) levels, and pathology of a range of tissues including heart, lungs, brain, kidney and liver were all unremarkable.

[5] = target: MC1R (Homo sapiens, UniProt Q01726); conditions: read-out: binding affinity (Ki); cited from earlier work
Sequence of MC1R (Q01726 whole entry): as above

[6] = in vivo fluorescence imaging and mathematical model; cited from earlier work
[7] = system: A375/MC1R and A375 xenograft tumors; assay: In vivo tumor targeting, bilateral A375/MC1R and A375 xenografts, fluorescence imaging; design: species or system nude mice; conditions: 4 h post-injection, i.v., P≤0.05, n=3
Protocol: FIG. 3 contains data from in vivo targeting of a MC1R specific probe. Left mice: Representative images of normalized fluorescence intensity maps overlaid on mice bearing xenograft tumors. […] A blocking experiment (right mouse) was performed by coinjection of 0.25 μg unlabeled NDP-α-MSH and 3 nmol/kg of the MC1RL-800 probe. […] Right mouse: Representative tomographic image of a mouse bearing a B16F10 xenograft tumor at 4 h after injection of 3 nmol/kg of the MC1RL-800 imaging probe using the FMT 2500 LX quantitative fluorescence tomography in vivo imaging system (PerkinElmer).
Previously, to investigate tumor targeting of the infrared conjugate of the ligand in vivo, bilateral subcutaneous xenograft tumors with A375/MC1R engineered cells in the right flank and A375 parental cells with relatively low MC1R expression in the left flank of nude mice and MC1RL-800 probe was injected intravenously and fluorescence accumulation was monitored over time. […] In vivo blocking studies were performed to determine that probe retention in the tumor was due to specific binding (FIG. 3, left mice).

## N=C(N)NCCC[C@H](NC(=O)[C@@H](Cc1ccccc1)NC(=O)[C@H](Cc1c[nH]cn1)NC(=O)CCCc1ccccc1)C(=O)N[C@@H](Cc1c[nH]c2ccccc12)C(=O)NCC(=O)N[C@@H](CCCCNC(=O)CCCCCNC(=O)CN1CCN(CC(=O)O)CCN(CC(=O)O)CCN(CC(=O)O)CC1)C(N)=O (139La complex, metal not drawn) [^139La-DOTA-MC1RL] ({Butanoyl(4-Ph)}-H[dF]RWGK([Ahx-DOTA])-NH2)
[1]
  median time-to-endpoint (tumor >2000 mm^3): 24 days

## N=C(N)NCCC[C@H](NC(=O)[C@@H](Cc1ccccc1)NC(=O)[C@H](Cc1c[nH]cn1)NC(=O)CCCc1ccccc1)C(=O)N[C@@H](Cc1c[nH]c2ccccc12)C(=O)NCC(=O)N[C@@H](CCCCNC(=O)CCCCCNC(=O)CN1CCN(CC(=O)O)CCN(CC(=O)O)CCN(CC(=O)O)CC1)C(N)=O [1-Phenylbutyric acid-His(D)Phe-Arg-Trp-Gly-Lys(Ahx-DOTA)-CONH2] ({Butanoyl(4-Ph)}-H[dF]RWGK([Ahx-DOTA])-NH2)
[2]
  Kd: 0.88 nM

## N=C(N)NCCC[C@H](NC(=O)[C@@H](Cc1ccccc1)NC(=O)[C@H](Cc1c[nH]cn1)NC(=O)CCCc1ccccc1)C(=O)N[C@@H](Cc1c[nH]c2ccccc12)C(=O)NCC(=O)N[C@@H](CCCCNC(=O)CCCCCNC(=O)CN1CCN(CC(=O)O)CCN(CC(=O)O)CCN(CC(=O)O)CC1)C(N)=O [DOTA-MC1RL] ({Butanoyl(4-Ph)}-H[dF]RWGK([Ahx-DOTA])-NH2)
[3]
  Ki: 0.24 nM and 0.3 nM

## N=C(N)NCCC[C@H](NC(=O)[C@@H](Cc1ccccc1)NC(=O)[C@H](Cc1c[nH]cn1)NC(=O)CCCc1ccccc1)C(=O)N[C@@H](Cc1c[nH]c2ccccc12)C(=O)NCC(=O)N[C@@H](CCCCNC(=O)CCCCCNC(=O)CN1CCN(CC(=O)O)CCN(CC(=O)O)CCN(CC(=O)O)CC1)C(N)=O [^225Ac-DOTA-MC1RL, metal not drawn] ({Butanoyl(4-Ph)}-H[dF]RWGK([Ahx-DOTA])-NH2)
[4]; MTD study
  overall tolerability: tolerated extremely well
[4]; range of radioactivities
  behavior in MTD study: no signs of altered behavior
  blood creatinine level: unremarkable
  blood urea nitrogen (BUN) level: unremarkable
  pathology of tissues including heart, lungs, brain, kidney and liver: unremarkable
[4]; range of radioactivities, weight gain decreased with increased activity
  weight gain in MTD study: All mice gained weight

## MC1RL-800: near-infrared fluorescent (NIRF) dye conjugated analog of MC1RL, imaging probe ({1‑Phenylbutyric acid}-H[dF]RWGK-NH2; also: NIR dye 800 conjugate, site not given here)
[5]
  Ki: 0.4 ± 0.1 nM
[6]
  clearance: rapid renal clearance
  crossing of the blood brain barrier (BBB): does not cross the BBB
[7]
  normalized fluorescence signal of low-MC1R A375 tumors compared to A375/MC1R tumors: significantly lower normalized fluorescence signal
